T1: Flag3-SNAP33-6His (Arabidopsis thaliana, UniProt Q9S7P9 1-300)
T1 construct: Qbc-SNARE SNAP33, Arabidopsis thaliana, At5G61210; not shown: Flag3, N-terminal, kept; 6His, C-terminal, kept
T1 sequence (looked up): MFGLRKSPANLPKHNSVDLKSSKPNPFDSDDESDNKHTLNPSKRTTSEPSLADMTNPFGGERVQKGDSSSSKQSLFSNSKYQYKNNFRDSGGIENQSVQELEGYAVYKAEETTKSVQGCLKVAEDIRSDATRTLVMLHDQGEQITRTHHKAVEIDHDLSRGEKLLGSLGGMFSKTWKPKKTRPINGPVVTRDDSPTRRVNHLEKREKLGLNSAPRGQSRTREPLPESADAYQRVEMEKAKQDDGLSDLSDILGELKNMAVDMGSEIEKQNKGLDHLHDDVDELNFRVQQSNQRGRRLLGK


Biological target: T1, Flag3-SNAP33-6His
Assay: pull-down; KC1^67–91-Flag3-StrepII or KAT1^1–63-Flag6-StrepII immobilised on Strep-Tactin resin; one prey at a time in 3-fold excess; overnight at 4°C; SDS-PAGE, Coomassie
Conditions: both partners purified

Binder	binding result
KAT1^1–63-Flag6-StrepII (domain or fragment, Arabidopsis thaliana, UniProt Q39128 1-63, looked up, KAT1 K+ channel, Arabidopsis thaliana, At5g46240, N-terminal cytosolic domain residues 1-63; also called KAT1^1–63 peptide; KAT1^1–63-6flag-StrepII; not shown: Flag6, C-terminal, kept; StrepII, C-terminal, kept) MSISWTRNFFERFCVEEYNIDTIKQSSFLSADLLPSLGARINQSTKLRKHIISPFNPRYRAWE	binds
IEDDNPSSKPFIVLHFDRRYRLWEL (domain or fragment, Arabidopsis thaliana, UniProt P92960 67-91, looked up, KC1 K+ channel subunit, Arabidopsis thaliana, At4g32650, N-terminal cytosolic domain residues 67-91; also called KC1^67–91 peptide; KC1^67–91-3flag-StrepII; not shown: Flag3, C-terminal, kept; StrepII, C-terminal, kept) [KC1^67–91-Flag3-StrepII]	binds

From paper PMC6836825, “K^+ Channel-SEC11 Binding Exchange Regulates SNARE Assembly for Secretory Traffic^1” (Plant Physiology, 2019)
